This is an account of results in patent publication US20180105596A1 (ELSALYS BIOTECH, published 2018).

The target of assay [1] is T1, recombinant His-Strep tagged human Tyro3 extracellular domain (human, UniProt Q06418 41-429).
T1 construct: also called hTyro3 ECD; full Tyro3 ECD
T1 sequence: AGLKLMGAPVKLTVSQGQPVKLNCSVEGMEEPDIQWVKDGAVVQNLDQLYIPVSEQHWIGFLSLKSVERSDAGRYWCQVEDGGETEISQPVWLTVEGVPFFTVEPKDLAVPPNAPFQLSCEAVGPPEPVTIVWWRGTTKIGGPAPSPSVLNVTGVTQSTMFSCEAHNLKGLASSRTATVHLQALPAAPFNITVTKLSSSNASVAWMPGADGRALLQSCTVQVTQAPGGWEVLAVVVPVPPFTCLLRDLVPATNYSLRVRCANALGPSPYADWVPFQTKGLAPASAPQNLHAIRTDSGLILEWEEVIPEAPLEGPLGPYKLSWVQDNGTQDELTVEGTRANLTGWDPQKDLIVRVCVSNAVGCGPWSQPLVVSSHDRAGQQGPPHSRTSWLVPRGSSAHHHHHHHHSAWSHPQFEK
Description: BLI (Octet K2), IgG on AHC tips, hTyro3 ECD analyte, 1:1 global fit; kon Error 1,63E+03. The procedure: (§1) Affinity determinations were performed using biolayer interferometry on an Octet K2 instrument (Pall/ForteBio) equipped with anti-Human Kinetics (AHC) disposable fiber-optic biosensor tips. All experiments were conducted at 30° C. in the recommended Fortebio running buffer (PBS with 0.1% (w/v) bovine serum albumin (BSA) and 0.02% (v/v) Tween_20). This buffer was also used for dilution of ligand (here the antibody) and of the analyte (here the extra cellular domain of human Tyro3 protein). Samples in a 96-well microplates (No. Black polypropylene low binding plates, Greiner Bio-One, Frickenhausen, Germany) were agitated at 1000 rpm. […] Between measurements, the anti-human Tyro3 biosensor surfaces were regenerated by exposing them to 3 cycles of 5 sec in 10 mM glycine, pH 1.5, followed by 5 sec in PBS. Association phase was measured for 300 seconds, dissociation phase depending on the interaction for 300 seconds depending on dissociation step. […] Affinity, association (kon) and dissociation rate constants (koff) for each antibody were calculated applying a 1:1 interaction model fitting global, Rmax linked by sensor) on the ForteBio data analysis software 9.0.

Assay [2] has as its target T1, recombinant His-Strep tagged human …. The assay can be described thus: BLI (Octet K2), 1:1 global fit; analyte concentration of this kobs not given. As to the method:
Affinity determinations were performed using biolayer interferometry on an Octet K2 instrument (Pall/ForteBio) equipped with anti-Human Kinetics (AHC) disposable fiber-optic biosensor tips. All experiments were conducted at 30° C. in the recommended Fortebio running buffer (PBS with 0.1% (w/v) bovine serum albumin (BSA) and 0.02% (v/v) Tween_20). This buffer was also used for dilution of ligand (here the antibody) and of the analyte (here the extra cellular domain of human Tyro3 protein). Samples in a 96-well microplates (No. Black polypropylene low binding plates, Greiner Bio-One, Frickenhausen, Germany) were agitated at 1000 rpm. […] Between measurements, the anti-human Tyro3 biosensor surfaces were regenerated by exposing them to 3 cycles of 5 sec in 10 mM glycine, pH 1.5, followed by 5 sec in PBS. Association phase was measured for 300 seconds, dissociation phase depending on the interaction for 300 seconds depending on dissociation step. All measurements were corrected for baseline drift using the double reference substraction, that is to say by subtracting a control sensor without ligand exposed to each concentration of the extra cellular domain of human Tyro3 protein and a reference well with ligand submitted to running buffer only. Affinity, association (kon) and dissociation rate constants (koff) for each antibody were calculated applying a 1:1 interaction model fitting global, Rmax linked by sensor) on the ForteBio data analysis software 9.0.
Background: BLI is a label-free optical method that tracks binding on a fibre tip over time.

The target is the same in assay [3]. Description: BLI (Octet K2), IgG on AHC tips, hTyro3 ECD analyte, 1:1 global fit; kdis(1/s); kdis Error 6,46E-05. The procedure:
as §1

Assay [4] shares this target. The assay can be described thus: BLI (Octet K2), IgG on AHC tips, hTyro3 ECD analyte, 1:1 global fit; KD Error 9,68E-10. The procedure: as §1
In assay [5] the target is T2, cynomolgus Tyro3 ECD, His-Strep tagged.
T2 construct: also called cyno TYRO3 ECD 8hisstrep
T2 extracellular domain: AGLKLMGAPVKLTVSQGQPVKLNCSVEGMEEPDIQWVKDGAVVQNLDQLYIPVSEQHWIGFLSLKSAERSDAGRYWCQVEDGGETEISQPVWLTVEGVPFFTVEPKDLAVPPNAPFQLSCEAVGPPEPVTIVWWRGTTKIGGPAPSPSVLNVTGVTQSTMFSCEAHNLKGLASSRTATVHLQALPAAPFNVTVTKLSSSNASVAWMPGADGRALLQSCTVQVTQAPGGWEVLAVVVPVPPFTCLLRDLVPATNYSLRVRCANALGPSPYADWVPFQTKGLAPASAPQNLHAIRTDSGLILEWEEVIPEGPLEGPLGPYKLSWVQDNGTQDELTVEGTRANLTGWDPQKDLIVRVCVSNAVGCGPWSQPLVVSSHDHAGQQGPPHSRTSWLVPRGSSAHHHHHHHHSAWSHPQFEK
The assay can be described thus: sandwich ELISA, Strep-tagged cynomolgus Tyro3 ECD captured on StrepMAB plate, IgG 3-fold from 3 µg/mL, anti-human IgG1-HRP. The procedure:
[The procedure below names another species; the source lists this species under the same test.] (§2) A double sandwich ELISA was developed. This assay consisted in measuring the binding of the anti-Tyro3 antibodies to be tested on immobilized strep-tagged entire human Tyro3 ECD captured directly on ELISA plate pre-coated with an anti-strep mAb (StrepMAB-Immo coated microplates from IBA biotech). Briefly, the 96 wells of StrepMAB-Immo coated microplate were washed three times with 300 μL of the PBS Tween 0.2% (referred as ELISA washing solution). The capture of an excess of purified strep tagged hTyro3 ECD protein was achieved by a one hour incubation at room temperature. In these experiments, 3 μg of purified protein diluted in PBS, BSA 1% (referred as ELISA diluent solution) were immobilized per well. The wells were washed three times with 300 μL of the washing solution. The non-specific binding sites on the well surface were blocked during 60 min at room temperature with 200 μL/well of blocking solution (PBS, BSA 3%). The wells were washed five times with 300 μL of the washing solution. Then, 100 μl (in duplicates) of the different concentrations of anti-Tyro3 antibodies to be tested diluted in ELISA diluent solution, were added per well and allowed to incubate during 1 hour at room temperature. An Irrelevant control IgG2656 was also added in this experiment. For anti-Tyro3 antibodies in the ScFv format, experiments were performed with 6 concentrations in duplicates (FIG. 3A). For anti-Tyro3 antibodies in the IgG format, experiments were performed with 9 concentrations in duplicates (FIG. 3B). […] For IgGs experiments, starting concentration for first dilution was 3 μg/ml and then dilutions of 3 fold in the ELISA diluent solution were performed. The wells were washed five times with 300 μL of the washing solution. […] The mix was allowed to incubated 60 min at room temperature.
Background: An ELISA detects its analyte on a solid surface through an enzyme-linked reagent.

Assay [6] addresses T1, recombinant His-Strep tagged human …. Description: sandwich ELISA, Strep-tagged hTyro3 ECD captured on StrepMAB plate, IgG 3-fold from 3 µg/mL, anti-human IgG1-HRP. As to the method:
as §2

Assay [7] deals with T3, recombinant human Tyro3 on transfected HEK293 cells (human, UniProt Q06418).
T3 construct: membrane receptor on HEK293 cells; untransfected HEK293 cells (endogenous Tyro3) serve as comparison; also called Tyro3-transfected cells
T3 sequence (receptor, looked up): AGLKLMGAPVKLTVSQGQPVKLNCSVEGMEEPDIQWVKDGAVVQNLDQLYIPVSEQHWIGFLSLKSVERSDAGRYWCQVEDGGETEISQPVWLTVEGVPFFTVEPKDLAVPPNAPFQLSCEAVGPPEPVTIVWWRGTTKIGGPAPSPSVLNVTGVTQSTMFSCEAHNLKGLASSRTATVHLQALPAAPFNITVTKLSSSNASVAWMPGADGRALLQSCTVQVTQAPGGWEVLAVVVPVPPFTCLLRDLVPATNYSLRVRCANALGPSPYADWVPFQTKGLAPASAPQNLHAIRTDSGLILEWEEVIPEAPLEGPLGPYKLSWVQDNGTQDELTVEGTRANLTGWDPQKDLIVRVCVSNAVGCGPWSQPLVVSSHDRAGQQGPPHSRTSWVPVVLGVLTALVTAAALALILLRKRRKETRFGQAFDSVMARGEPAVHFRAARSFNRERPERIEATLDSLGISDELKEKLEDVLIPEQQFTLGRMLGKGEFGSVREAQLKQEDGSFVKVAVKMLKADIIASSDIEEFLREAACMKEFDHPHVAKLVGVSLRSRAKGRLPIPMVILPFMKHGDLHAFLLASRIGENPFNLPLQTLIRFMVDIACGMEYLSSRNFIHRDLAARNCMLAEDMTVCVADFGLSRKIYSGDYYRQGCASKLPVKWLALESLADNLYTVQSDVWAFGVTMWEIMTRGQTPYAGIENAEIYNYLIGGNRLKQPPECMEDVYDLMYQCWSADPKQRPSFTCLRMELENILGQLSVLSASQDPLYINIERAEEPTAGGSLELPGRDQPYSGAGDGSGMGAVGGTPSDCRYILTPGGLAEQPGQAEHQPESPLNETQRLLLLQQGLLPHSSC
Description: flow cytometry, 1 µg IgG per 5E5 live HEK293 cells, PE anti-human lambda. The procedure: FIG. 9: Binding of anti-Tyro3 IgGs in living cells. HEK293 cells transfected to express recombinant human Tyro3 and HEK293 untransfected cells were stained with the Live-Dead NIR dye and either incubated with the TYRO 3-specific MAB859 monoclonal antibody, its isotype control (upper panels) or to individual anti-Tyro3 IgG (middle and bottom panels). IgG isotype control is IGX2656. […] Data were acquired using an ARIA III flow cytometer (Becton Dickinson) and analyzed using the Kaluza software (Beckman Coulter). Histograms shown are restricted to live cells that show a characteristic size and granulometry of HEK293 cells. Anti-Tyro3 IgG Tyro3-specific binding is shown by fluorescence intensity increase of Tyro3-transfected cells (black line) compared to untransfected cells (grey line).
To determine the individual IgG ability to further bind Tyro3-transfected cells than untransfected cells, 5^E5 untransfected and Tyro3-transfected cells were exposed to Live-Dead NIR dye (Life Technologies, #L10119) and 1 μg of each IgX in PBS for 30 minutes at 4° C. […] Cells were washed and PE fluorescence of at least 10,000 live cells was immediately recorded on an ARIA III flow cytometer (Beckton Dickinson) (middle and bottom panels of FIG. 9). IgG ability to bind overexpressed Tyro3 was determined with overlay histograms showing PE expression profile of untransfected and Tyro3-transfected cell. […]
For orientation: A flow cytometer gives signals particle by particle.

The target in assay [8] is T1, recombinant His-Strep tagged human …. The assay can be described thus: BLI (Octet K2), IgG on AHC tips, hTyro3 ECD analyte, 1:1 global fit; kdis(1/s); kdis Error 1,11E-04. The procedure: as §1
The target is the same in assay [9]. Description: BLI (Octet K2), IgG on AHC tips, hTyro3 ECD analyte, 1:1 global fit; kon Error 9,23E+02. As to the method:
as §1

Assay [10] has the same target. The assay can be described thus: BLI (Octet K2), IgG on AHC tips, hTyro3 ECD analyte, 1:1 global fit; KD Error 2,48E-09. The procedure: as §1

B1: IgG2410 (antibody, V domains shown)
VH: EVQLVQSGADVKKPGASLTISCQASGYTFTDYWISWVRQKPGKGLEWMGQIVPRASRTNYGPSFQGHVTISADRSTATAYLQWRSLEASDTAMYYCVRPYFQTSGGTIPEYYQHWGPGTLVTVSS
VL: SYELTQPPSVSVSPGQTARITCSGDALPKKYAYWYQQKSGQAPVLVIYEDEKRASGIPERFSGSSSGTMATLTISGAQVEDEADYYCYSQERNGNYAVFGGGTKLTVL
notes: also called IGX2410
As usually defined, the kon is a measure of how fast the partners come together. The term koff denotes a measure of how fast the partners let go of each other. As usually defined, the Kd is the free concentration of one partner at which half of the binding sites on the other are occupied at equilibrium, for simple one-to-one binding. On to B1, for which the kon in assay [1] worked out at 120000 M⁻¹ s⁻¹. For the same molecule, in assay [2], the kobs turned out to be 0.0145 s⁻¹. The koff in assay [3] stood at 0.00704 s⁻¹. The Kd in [4] was 58.9 nM. The binding result in [5] was “binds”.

B2: IgG2717 (antibody, V domains shown)
VH: EVQLVQSGADVKKPGASLTISCQASGYTFTDYWISWVRQKPGKGLEWMGEIFLPPSTTVYGPSFQGHVTISADRSTATAYLQWRSLEASDTAMYYCVRQTRLTSGGTIPEYYQHWGPGTLVTVSS
VL: SYELTQPPSVSVSPGQTARITCSGDALPKKYAYWYQQKSGQAPVLVIYEDNKRGSGIPERFSGSSSGTMATLTISGAQVEDEADYYCYSKSPEGNYMVFGGGTKLTVL
notes: also called IGX2717
With B2, the binding result in assay [6], in assay [5] and in assay [7] was “binds” throughout.

B3: IgG2412 (antibody, V domains shown)
VH: EVQLVQSGADVKKPGASLTISCQASGYTFTDYWISWVRQKPGKGLEWMGRIRPLLSHTMYGPSFQGHVTISADRSTATAYLQWRSLEASDTAMYYCVRSWLATSGGTIPEYYQHWGPGTLVTVSS
VL: SYELTQPPSVSVSPGQTARITCSGDALPKKYAYWYQQKSGQAPVLVIYEDAKRVSGIPERFSGSSSGTMATLTISGAQVEDEADYYCYSASANGNYRVFGGGTKLTVL
notes: also called IGX2412
Consider B3, for which the kobs in [2] is 0.0175 s⁻¹. Further, the koff in [8] is 0.0091 s⁻¹. In addition, in [9], the kon is 67400 M⁻¹ s⁻¹. For the same molecule, in assay [5], the binding result is “binds”. For the same molecule, in assay [10], the Kd is 135 nM.

B4: IgG2411 (antibody, V domains shown)
VH: EVQLVQSGADVKKPGASLTISCQASGYTFTDYWISWVRQKPGKGLEWMGSITRSSSRTHYGPSFQGHVTISADRSTATAYLQWRSLEASDTAMYYCVRGYTHLRTWGPGTLVTVSS
VL: SYELTQPPSVSVSPGQTARITCSGDALPKKYAYWYQQKSGQAPVLVIYEDSKRSSGIPERFSGSSSGTMATLTISGAQVEDEADYYCYSANQRGNYMVFGGGTKLTVL
notes: also called IGX2411
By EC50 (read off the curve) is commonly meant the concentration at which the effect is half-maximal. As to B4, the “EC50 (read off the curve)” value in [6] and in assay [5] was roughly 0.02 µg/mL each time.
